Measurements reported in publication PMC5961032.

Tests used:
[1] = target: PP1α (7–330) (UniProt P62136)
[2] = target: native catalytic subunit of PP1 from rabbit skeletal muscle (PP1^N) (rabbit) (UniProt P62139)
UniProt P62139, sequence (P62139 whole entry): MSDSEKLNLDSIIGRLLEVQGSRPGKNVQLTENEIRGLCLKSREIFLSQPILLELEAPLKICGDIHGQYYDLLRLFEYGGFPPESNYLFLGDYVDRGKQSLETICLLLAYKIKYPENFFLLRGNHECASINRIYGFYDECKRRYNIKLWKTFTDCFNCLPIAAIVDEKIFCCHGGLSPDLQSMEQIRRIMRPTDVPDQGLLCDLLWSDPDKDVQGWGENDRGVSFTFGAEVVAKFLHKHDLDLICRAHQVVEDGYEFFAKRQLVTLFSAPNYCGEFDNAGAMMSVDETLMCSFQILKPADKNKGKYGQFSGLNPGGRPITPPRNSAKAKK

MBP-PPP1R15A^325–636, sequence (O75807 325-636): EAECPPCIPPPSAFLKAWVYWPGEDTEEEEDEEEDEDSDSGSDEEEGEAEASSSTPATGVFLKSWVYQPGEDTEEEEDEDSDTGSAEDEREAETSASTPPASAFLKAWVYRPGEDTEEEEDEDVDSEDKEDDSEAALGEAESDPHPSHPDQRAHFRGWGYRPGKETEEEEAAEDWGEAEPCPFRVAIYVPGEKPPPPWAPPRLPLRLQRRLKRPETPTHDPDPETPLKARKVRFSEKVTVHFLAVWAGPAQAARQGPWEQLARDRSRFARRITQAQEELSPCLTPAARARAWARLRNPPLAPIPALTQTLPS
PPP1R15A^325–636-MBP, sequence (O75807 325-636): as above
UniProt P62136, sequence (P62136 7-330): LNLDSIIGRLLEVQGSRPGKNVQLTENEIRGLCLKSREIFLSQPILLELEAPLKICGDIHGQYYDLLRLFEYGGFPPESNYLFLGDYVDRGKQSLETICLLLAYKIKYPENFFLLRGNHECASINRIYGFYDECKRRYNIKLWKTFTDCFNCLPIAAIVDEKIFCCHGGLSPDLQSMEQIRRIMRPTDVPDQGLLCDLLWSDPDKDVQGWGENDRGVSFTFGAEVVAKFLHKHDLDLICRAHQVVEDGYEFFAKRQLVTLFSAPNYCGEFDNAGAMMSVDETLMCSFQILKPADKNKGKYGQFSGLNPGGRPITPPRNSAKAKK

“MBP-PPP1R15A^325–636 (from UniProt O75807 325-636) (domain or fragment)” was tested, and the EC50 of the stimulation of eIF2α^P (2 μM) dephosphorylation by PP1α (24 nM) with G-actin (400 nM), MBP-PPP1R15A^325–636 0–100 nM, 20 min at 30 °C [1] was 6 nM.

“PPP1R15A^325–636-MBP (from UniProt O75807 325-636) (domain or fragment)” showed an EC50 of the stimulation of eIF2α^P (2 μM) dephosphorylation by PP1^N (20 nM) with G-actin (400 nM), PPP1R15A^325–636-MBP 0–100 nM, 30 min at 30 °C [2] of 58 nM.
